Laboratory results reported in patent US20210246166A1 (Bayer, published 2021).
Bridge positions count the residues as written; N and C are the ends. Square brackets hold non-standard residues; d marks the D form. Ends that are not written are not given here. (Trifluoro)l/L = 5,5,5-trifluoro-DL-leucine; Pro(trans-4-F) = O=C(O)[C@@H]1C[C@@H](F)CN1; Oic = O=C(O)[C@@H]1C[C@@H]2CCCC[C@@H]2N1; tBuAla = CC(C)(C)C[C@H](N)C(=O)O; Gly(cBu) = N[C@H](C(=O)O)C1CCC1; Pen = CC(C)(S)[C@H](N)C(=O)O; Lac = C[C@H](O)C(=O)O; Ahx = NCCCCCC(=O)O; Sar = CNCC(=O)O

T1: recombinant human MASP1 active protease (amino acids 297-699, C-terminal His Tag) (human, UniProt P48740 297-699)
T1 sequence: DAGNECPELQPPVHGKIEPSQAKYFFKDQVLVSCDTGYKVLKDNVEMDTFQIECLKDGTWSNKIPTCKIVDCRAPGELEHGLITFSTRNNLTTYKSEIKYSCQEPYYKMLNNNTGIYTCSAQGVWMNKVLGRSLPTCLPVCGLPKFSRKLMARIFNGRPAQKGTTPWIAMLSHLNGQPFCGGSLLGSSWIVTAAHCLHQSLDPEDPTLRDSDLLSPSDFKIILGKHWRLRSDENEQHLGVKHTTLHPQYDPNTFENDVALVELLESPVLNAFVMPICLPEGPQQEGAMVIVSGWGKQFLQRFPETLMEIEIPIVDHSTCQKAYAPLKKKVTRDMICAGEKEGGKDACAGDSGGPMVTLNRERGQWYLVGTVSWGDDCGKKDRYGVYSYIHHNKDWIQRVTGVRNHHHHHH

B1: Example 383: (Ahx)-IC+SRSLP-(Oic)-IC+I-OH (peptide)
peptide: [Ahx]ICSRSLP[Oic]ICI-OH
modifications: disulfide 3-11; N-terminus assumed
SMILES: CC[C@H](C)[C@H](NC(=O)[C@@H]1CSSC[C@H](NC(=O)[C@@H](NC(=O)CCCCCN)[C@@H](C)CC)C(=O)N[C@@H](CO)C(=O)N[C@@H](CCCNC(=N)N)C(=O)N[C@@H](CO)C(=O)N[C@@H](CC(C)C)C(=O)N2CCC[C@H]2C(=O)N2[C@@H](C[C@@H]3CCCC[C@@H]32)C(=O)N[C@@H]([C@@H](C)CC)C(=O)N1)C(=O)O
B2: Example 390: ((N-Me)G)-IC+SRSLP-((trans-4-Fluoro)P)-IC+IPD-OH (peptide)
peptide: [Sar]ICSRSLP[Pro(trans-4-F)]ICIPD-OH
modifications: disulfide 3-11; N-terminus assumed
SMILES: CC[C@H](C)[C@H](NC(=O)CNC)C(=O)N[C@H]1CSSC[C@@H](C(=O)N[C@H](C(=O)N2CCC[C@H]2C(=O)N[C@@H](CC(=O)O)C(=O)O)[C@@H](C)CC)NC(=O)[C@H]([C@@H](C)CC)NC(=O)[C@@H]2C[C@@H](F)CN2C(=O)[C@@H]2CCCN2C(=O)[C@H](CC(C)C)NC(=O)[C@H](CO)NC(=O)[C@H](CCCNC(=N)N)NC(=O)[C@H](CO)NC1=O
B3: Example 386: ((N-Me)G)-IC+SRSLPPIC+IpD-OH (peptide)
peptide: [Sar]ICSRSLPPICI[dP]D-OH
modifications: disulfide 3-11; N-terminus assumed
SMILES: CC[C@H](C)[C@H](NC(=O)CNC)C(=O)N[C@H]1CSSC[C@@H](C(=O)N[C@H](C(=O)N2CCC[C@@H]2C(=O)N[C@@H](CC(=O)O)C(=O)O)[C@@H](C)CC)NC(=O)[C@H]([C@@H](C)CC)NC(=O)[C@@H]2CCCN2C(=O)[C@@H]2CCCN2C(=O)[C@H](CC(C)C)NC(=O)[C@H](CO)NC(=O)[C@H](CCCNC(=N)N)NC(=O)[C@H](CO)NC1=O
B4: Example 388: IC+SRSLP-(Oic)-I-(Pen)+IPQ-OH (peptide)
peptide: ICSRSLP[Oic]I[Pen]IPQ-OH
modifications: disulfide 2-10; N-terminus assumed
SMILES: CC[C@H](C)[C@H](N)C(=O)N[C@H]1CSSC(C)(C)[C@@H](C(=O)N[C@H](C(=O)N2CCC[C@H]2C(=O)N[C@@H](CCC(N)=O)C(=O)O)[C@@H](C)CC)NC(=O)[C@H]([C@@H](C)CC)NC(=O)[C@@H]2C[C@@H]3CCCC[C@@H]3N2C(=O)[C@@H]2CCCN2C(=O)[C@H](CC(C)C)NC(=O)[C@H](CO)NC(=O)[C@H](CCCNC(=N)N)NC(=O)[C@H](CO)NC1=O
B5: Example 389: AIC+SRSLPP-(Cyclobutylglycine)-C+IPD-NH2 (peptide)
peptide: AICSRSLPP[Gly(cBu)]CIPD-NH2
modifications: disulfide 3-11; N-terminus assumed
SMILES: CC[C@H](C)[C@H](NC(=O)[C@H](C)N)C(=O)N[C@H]1CSSC[C@@H](C(=O)N[C@H](C(=O)N2CCC[C@H]2C(=O)N[C@@H](CC(=O)O)C(N)=O)[C@@H](C)CC)NC(=O)[C@H](C2CCC2)NC(=O)[C@@H]2CCCN2C(=O)[C@@H]2CCCN2C(=O)[C@H](CC(C)C)NC(=O)[C@H](CO)NC(=O)[C@H](CCCNC(=N)N)NC(=O)[C@H](CO)NC1=O
B6: Example 387: (Lactic)-IC+SRS-((tBu)A)-PPIC+IPD-NH2 (peptide)
peptide: [Lac]ICSRS[tBuAla]PPICIPD-NH2
modifications: disulfide 3-11; N-terminus assumed
SMILES: CC[C@H](C)[C@H](NC(=O)[C@H](C)O)C(=O)N[C@H]1CSSC[C@@H](C(=O)N[C@H](C(=O)N2CCC[C@H]2C(=O)N[C@@H](CC(=O)O)C(N)=O)[C@@H](C)CC)NC(=O)[C@H]([C@@H](C)CC)NC(=O)[C@@H]2CCCN2C(=O)[C@@H]2CCCN2C(=O)[C@H](CC(C)(C)C)NC(=O)[C@H](CO)NC(=O)[C@H](CCCNC(=N)N)NC(=O)[C@H](CO)NC1=O

molecular target: T1, recombinant human MASP1 active protease …; test: cell-based or functional assay

Row | Binder | human MASP1 IC50 [nM]
1 | B1 | 40
2 | B2 | 47
3 | B3 | 43
4 | B4 | 45
5 | GICSRS[(Trifluoro)l/L]PPICIPD-OH (disulfide 3-11) [Example 384: GIC+SRS-((Trifluoro)l/L)-PPIC+IPD-OH] | 42
6 | B5 | 46
7 | B6 | 44

molecular target: recombinant human MASP2 active protease (amino acids 297-686, C-terminal His Tag) (human, UniProt O00187 297-686); test: cell-based or functional assay
Sequence (O00187 other isoform, or with tags, fused parts or gaps limits assumed): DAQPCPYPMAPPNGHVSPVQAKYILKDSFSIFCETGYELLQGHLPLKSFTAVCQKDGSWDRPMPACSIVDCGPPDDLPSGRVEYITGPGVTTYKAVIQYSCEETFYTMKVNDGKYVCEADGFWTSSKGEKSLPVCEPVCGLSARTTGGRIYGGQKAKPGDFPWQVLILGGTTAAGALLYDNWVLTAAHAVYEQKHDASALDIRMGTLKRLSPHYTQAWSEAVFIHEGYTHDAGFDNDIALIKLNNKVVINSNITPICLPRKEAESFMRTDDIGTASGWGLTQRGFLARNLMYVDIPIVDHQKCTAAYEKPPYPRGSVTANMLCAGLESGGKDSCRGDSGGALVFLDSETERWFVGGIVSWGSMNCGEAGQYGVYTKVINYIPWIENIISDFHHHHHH

Row | Binder | human MASP2 IC50 [nM]
8 | B1 | 800
9 | B2 | 1300
10 | B3 | 750
11 | B4 | 750
12 | GICSRS[(Trifluoro)l/L]PPICIPD-OH (disulfide 3-11) [Example 384: GIC+SRS-((Trifluoro)l/L)-PPIC+IPD-OH] | 260
13 | B5 | 330
14 | B6 | 2200
